The values below come from paper PMC3715890.

The target of data set [1] is T1, HIF-1α 1-350;HIF-1β (ARNT) 1-474 (human?;human?, UniProt Q16665;P27540 1-350;1-474, |). Description: EMSA; EMSA: Tris-HCl (concentration and pH not in material), 50 mM KCl, 50 mM NaCl, 5 mM DTT, 1 mM MgCl2, 1 mM EDTA, 10% glycerol, 5 µg BSA, 25 ng poly dI-dC; 30 min. In general terms: In EMSA bound probe runs differently from free probe, usually more slowly.
The target of data set [2] is HIF-2α (EPAS1) 1-351;HIF-1β (ARNT) 1-474 (human?;human?, UniProt Q99814;P27540 1-351;1-474, |). Described as above.
Data set [3] deals with T1, HIF-1α 1-350;HIF-1β (ARNT) 1-474. Description: competition; unlabelled DNA titrated against labelled probe N1 (EMSA); EMSA: Tris-HCl (concentration and pH not in material), 50 mM KCl, 50 mM NaCl, 5 mM DTT, 1 mM MgCl2, 1 mM EDTA, 10% glycerol, 5 µg BSA, 25 ng poly dI-dC; 30 min.

B1: EMSA HRE probe (human EPO enhancer) (dsDNA)
DNA 1: GGCTGGGCCTACGTGCTGTCTCACACAGCC
DNA 2: GGCTGTGTGAGACAGCACGTAGGCCCAGCC
Take B1: the binding result in data set [1] and in data set [2] was “binds” each time.

B2: unlabelled HRE competitor DNA (dsDNA)
DNA 1: B1 DNA 1
DNA 2: B1 DNA 2
B2: in data set [3], the binding result is listed as “binds”.
